Measured values reported in article PMC12102759 (2025).

B1: TPTE2 peptide 92-107 (Phosphatidylinositol 3,4,5-trisphosphate 3-phosphatase TPTE2), 16-mer library wild type / TLN1 PTB (TLN1 Phosphotyrosine-binding (PTB) domain, residues 309-401) (parent complex)
chain 1: LADLIFTDSKLYIPLE
chain 2: GVSFFLVKEKMKGKNKLVPRLLGITKECVMRVDEKTKEVIQEWNLTNIKRWAASPKSFTLDFGDYQDGYYSVQTTEGEQIAQLIAGYIDIILK
B2: AMOTL2 peptide 66-81 (Angiomotin-like protein 2), 16-mer library wild type / TNKS ANK (TNKS 12 ANK repeats, residues 174-649) (parent complex)
chain 1: LQQATRQEPQGQEHQG
chain 2: TGVPAVSGALRELLEACRNGDVSRVKRLVDAANVNAKDMAGRKSSPLHFAAGFGRKDVVEHLLQMGANVHARDDGGLIPLHNACSFGHAEVVSLLLCQGADPNARDNWNYTPLHEAAIKGKIDVCIVLLQHGADPNIRNTDGKSALDLADPSAKAVLTGEYKKDELLEAARSGNEEKLMALLTPLNVNCHASDGRKSTPLHLAAGYNRVRIVQLLLQHGADVHAKDKGGLVPLHNACSYGHYEVTELLLKHGACVNAMDLWQFTPLHEAASKNRVEVCSLLLSHGADPTLVNCHGKSAVDMAPTPELRERLTYEFKGHSLLQAAREADLAKVKKTLALEIINFKQPQSHETALHCAVASLHPKRKQVTELLLRKGANVNEKNKDFMTPLHVAAERAHNDVMEVLHKHGAKMNALDTLGQTALHRAALAGHLQTCRLLLSYGSDPSIISLQGFTAAQMGNEAVQQILSESTPIRTSD

Variants of: B1
Assay: proteomic peptide phage display deep mutational scan (ProP-PD DMS): M13 P8 16-mer library selected against immobilised GST-tagged bait for four days (rounds), NGS of the eluted pools per day and pseudo-replica; bait immobilised on MaxiSorp plates (10 µg), library pre-cleared on GST, 2 h binding at 4 °C, five washes; one round per day, days 1-4; value from days 2 and 3

Row | Variant | screen value
1 | chain 1 LADLIFTDSKLYEPLE [chain 1 I13E] | 0.000182 average fractional NGS count over selection days 2 and 3 (reads of this peptide / all reads for the bait, averaged over …
2 | chain 1 LADLIFTDSKLYFPLE [chain 1 I13F] | 0.000135 average fractional NGS count over selection days 2 and 3 (reads of this peptide / all reads for the bait, averaged over …
3 | chain 1 LADLIFTDSKLYVPLE [chain 1 I13V] | 0.00758 average fractional NGS count over selection days 2 and 3 (reads of this peptide / all reads for the bait, averaged over …
4 | chain 1 LADLIFTDSKLYTPLE [chain 1 I13T] | 0.000348 average fractional NGS count over selection days 2 and 3 (reads of this peptide / all reads for the bait, averaged over …
5 | chain 1 LADLIFTDSKLFIPLE [chain 1 Y12F] | 0.00012 average fractional NGS count over selection days 2 and 3 (reads of this peptide / all reads for the bait, averaged over …
6 | chain 1 LADLIFTDSKLWIPLE [chain 1 Y12W] | 0.000296 average fractional NGS count over selection days 2 and 3 (reads of this peptide / all reads for the bait, averaged over …
7 | chain 1 LADLIFTDNKLYIPLE [chain 1 S9N] | 0.00167 average fractional NGS count over selection days 2 and 3 (reads of this peptide / all reads for the bait, averaged over …
8 | chain 1 LADLIWTDSKLYIPLE [chain 1 F6W] | 0.000583 average fractional NGS count over selection days 2 and 3 (reads of this peptide / all reads for the bait, averaged over …
9 | chain 1 LADLIFTDSKLYIPQE [chain 1 L15Q] | 0.00188 average fractional NGS count over selection days 2 and 3 (reads of this peptide / all reads for the bait, averaged over …
10 | chain 1 LADLIFTDSKLYIPYE [chain 1 L15Y] | 0.00117 average fractional NGS count over selection days 2 and 3 (reads of this peptide / all reads for the bait, averaged over …
11 | chain 1 LADLIFTDSKLYIPFE [chain 1 L15F] | 0.000576 average fractional NGS count over selection days 2 and 3 (reads of this peptide / all reads for the bait, averaged over …
12 | chain 1 LADLIFTDSKLYIPVE [chain 1 L15V] | 0.0032 average fractional NGS count over selection days 2 and 3 (reads of this peptide / all reads for the bait, averaged over …
13 | chain 1 LADLIFTDSKLYIPWE [chain 1 L15W] | 0.000732 average fractional NGS count over selection days 2 and 3 (reads of this peptide / all reads for the bait, averaged over …
14 | chain 1 LADLIFTDSKLYIPHE [chain 1 L15H] | 0.00102 average fractional NGS count over selection days 2 and 3 (reads of this peptide / all reads for the bait, averaged over …
15 | chain 1 LADLIFTDSKLYIPKE [chain 1 L15K] | 0.000159 average fractional NGS count over selection days 2 and 3 (reads of this peptide / all reads for the bait, averaged over …
16 | chain 1 LADLIFTDSKLYIPDE [chain 1 L15D] | 0.000238 average fractional NGS count over selection days 2 and 3 (reads of this peptide / all reads for the bait, averaged over …
17 | chain 1 LADLIFTDSKLYIPNE [chain 1 L15N] | 0.000216 average fractional NGS count over selection days 2 and 3 (reads of this peptide / all reads for the bait, averaged over …
18 | chain 1 LAPLIFTDSKLYIPLE [chain 1 D3P] | 0.000181 average fractional NGS count over selection days 2 and 3 (reads of this peptide / all reads for the bait, averaged over …
19 | chain 1 LASLIFTDSKLYIPLE [chain 1 D3S] | 0.000257 average fractional NGS count over selection days 2 and 3 (reads of this peptide / all reads for the bait, averaged over …
20 | chain 1 LAGLIFTDSKLYIPLE [chain 1 D3G] | 0.000214 average fractional NGS count over selection days 2 and 3 (reads of this peptide / all reads for the bait, averaged over …
21 | chain 1 LANLIFTDSKLYIPLE [chain 1 D3N] | 0.000465 average fractional NGS count over selection days 2 and 3 (reads of this peptide / all reads for the bait, averaged over …
22 | chain 1 LATLIFTDSKLYIPLE [chain 1 D3T] | 0.00148 average fractional NGS count over selection days 2 and 3 (reads of this peptide / all reads for the bait, averaged over …
23 | chain 1 LAQLIFTDSKLYIPLE [chain 1 D3Q] | 0.000216 average fractional NGS count over selection days 2 and 3 (reads of this peptide / all reads for the bait, averaged over …
24 | chain 1 LDDLIFTDSKLYIPLE [chain 1 A2D] | 0.0012 average fractional NGS count over selection days 2 and 3 (reads of this peptide / all reads for the bait, averaged over …
25 | chain 1 LGDLIFTDSKLYIPLE [chain 1 A2G] | 0.00214 average fractional NGS count over selection days 2 and 3 (reads of this peptide / all reads for the bait, averaged over …

Row | Variant | screen value
26 | chain 1 LKDLIFTDSKLYIPLE [chain 1 A2K] | 0.000711 average fractional NGS count over selection days 2 and 3 (reads of this peptide / all reads for the bait, averaged over …
27 | chain 1 LNDLIFTDSKLYIPLE [chain 1 A2N] | 0.000208 average fractional NGS count over selection days 2 and 3 (reads of this peptide / all reads for the bait, averaged over …
28 | chain 1 LTDLIFTDSKLYIPLE [chain 1 A2T] | 0.00695 average fractional NGS count over selection days 2 and 3 (reads of this peptide / all reads for the bait, averaged over …
29 | chain 1 LSDLIFTDSKLYIPLE [chain 1 A2S] | 0.000833 average fractional NGS count over selection days 2 and 3 (reads of this peptide / all reads for the bait, averaged over …
30 | chain 1 LEDLIFTDSKLYIPLE [chain 1 A2E] | 0.000377 average fractional NGS count over selection days 2 and 3 (reads of this peptide / all reads for the bait, averaged over …
31 | chain 1 LMDLIFTDSKLYIPLE [chain 1 A2M] | 0.000697 average fractional NGS count over selection days 2 and 3 (reads of this peptide / all reads for the bait, averaged over …
32 | chain 1 LIDLIFTDSKLYIPLE [chain 1 A2I] | 0.000259 average fractional NGS count over selection days 2 and 3 (reads of this peptide / all reads for the bait, averaged over …
33 | chain 1 LHDLIFTDSKLYIPLE [chain 1 A2H] | 0.00143 average fractional NGS count over selection days 2 and 3 (reads of this peptide / all reads for the bait, averaged over …
34 | chain 1 LQDLIFTDSKLYIPLE [chain 1 A2Q] | 0.000351 average fractional NGS count over selection days 2 and 3 (reads of this peptide / all reads for the bait, averaged over …
35 | chain 1 LRDLIFTDSKLYIPLE [chain 1 A2R] | 0.00121 average fractional NGS count over selection days 2 and 3 (reads of this peptide / all reads for the bait, averaged over …
36 | chain 1 LYDLIFTDSKLYIPLE [chain 1 A2Y] | 0.00133 average fractional NGS count over selection days 2 and 3 (reads of this peptide / all reads for the bait, averaged over …
37 | chain 1 LPDLIFTDSKLYIPLE [chain 1 A2P] | 0.000416 average fractional NGS count over selection days 2 and 3 (reads of this peptide / all reads for the bait, averaged over …
38 | chain 1 LADLMFTDSKLYIPLE [chain 1 I5M] | 0.000604 average fractional NGS count over selection days 2 and 3 (reads of this peptide / all reads for the bait, averaged over …
39 | chain 1 LADLPFTDSKLYIPLE [chain 1 I5P] | 0.000122 average fractional NGS count over selection days 2 and 3 (reads of this peptide / all reads for the bait, averaged over …
40 | chain 1 LADLKFTDSKLYIPLE [chain 1 I5K] | 0.000454 average fractional NGS count over selection days 2 and 3 (reads of this peptide / all reads for the bait, averaged over …
41 | chain 1 LADLEFTDSKLYIPLE [chain 1 I5E] | 0.000204 average fractional NGS count over selection days 2 and 3 (reads of this peptide / all reads for the bait, averaged over …
42 | chain 1 LADLWFTDSKLYIPLE [chain 1 I5W] | 0.00126 average fractional NGS count over selection days 2 and 3 (reads of this peptide / all reads for the bait, averaged over …
43 | chain 1 LADLHFTDSKLYIPLE [chain 1 I5H] | 0.000463 average fractional NGS count over selection days 2 and 3 (reads of this peptide / all reads for the bait, averaged over …
44 | chain 1 LADLVFTDSKLYIPLE [chain 1 I5V] | 0.000758 average fractional NGS count over selection days 2 and 3 (reads of this peptide / all reads for the bait, averaged over …
45 | chain 1 LADLQFTDSKLYIPLE [chain 1 I5Q] | 0.000996 average fractional NGS count over selection days 2 and 3 (reads of this peptide / all reads for the bait, averaged over …
46 | chain 1 LADLYFTDSKLYIPLE [chain 1 I5Y] | 0.00125 average fractional NGS count over selection days 2 and 3 (reads of this peptide / all reads for the bait, averaged over …
47 | chain 1 LADLFFTDSKLYIPLE [chain 1 I5F] | 0.000696 average fractional NGS count over selection days 2 and 3 (reads of this peptide / all reads for the bait, averaged over …
48 | chain 1 LADLDFTDSKLYIPLE [chain 1 I5D] | 0.0016 average fractional NGS count over selection days 2 and 3 (reads of this peptide / all reads for the bait, averaged over …
49 | chain 1 LADLRFTDSKLYIPLE [chain 1 I5R] | 0.0019 average fractional NGS count over selection days 2 and 3 (reads of this peptide / all reads for the bait, averaged over …
50 | chain 1 LADLGFTDSKLYIPLE [chain 1 I5G] | 0.000313 average fractional NGS count over selection days 2 and 3 (reads of this peptide / all reads for the bait, averaged over …

Variants of: B2
Assay: as above

Row | Variant | screen value
51 | chain 1 LQQATRQEPQGQEHFG [chain 1 Q15F] | 0.000668 average fractional NGS count over selection days 2 and 3 (reads of this peptide / all reads for the bait, averaged over …
52 | chain 1 LQQLTRQEPQGQEHQG [chain 1 A4L] | 0.00111 average fractional NGS count over selection days 2 and 3 (reads of this peptide / all reads for the bait, averaged over …
53 | chain 1 LQQPTRQEPQGQEHQG [chain 1 A4P] | 0.00156 average fractional NGS count over selection days 2 and 3 (reads of this peptide / all reads for the bait, averaged over …
54 | chain 1 LQQATRQEPQGQEKQG [chain 1 H14K] | 0.00043 average fractional NGS count over selection days 2 and 3 (reads of this peptide / all reads for the bait, averaged over …
55 | chain 1 LQQATRQGPQGQEHQG [chain 1 E8G] | 0.000387 average fractional NGS count over selection days 2 and 3 (reads of this peptide / all reads for the bait, averaged over …
56 | chain 1 LQQATRQEPQGQNHQG [chain 1 E13N] | 0.000173 average fractional NGS count over selection days 2 and 3 (reads of this peptide / all reads for the bait, averaged over …
